The source of these data is the supplement of paper PMC12042874.

± gives the uncertainty stated by the source.

A short description of the data set: amyloid nucleation score (Sup35N fusion, yeast selection) (log enrichment); library NNK3; higher = more nucleation; inactive = no reads after selection. A digest of the protocol:
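For the nucleation score, DiMSum gave the log enrichment of output over input reads, centred on the mode score of non-aggregating sequences. Psi-negative yeast expressing Sup35N fused to peptides of 20 random codons were induced with 100 μM copper sulfate for 24 hours and grown 7 days at 30°C on medium lacking adenine and uracil. Input and output plasmid inserts were Illumina-sequenced, and sequences with under 100 input reads were excluded.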
On to SFERSSSSST, for which the amyloid nucleation score entry is “inactive”.
In the case of SFFLVSWLGALTVVIPVQ, the amyloid nucleation score entry was “inactive”.
Next, SFFRNRGGEDFFISWWFENN: “inactive”; SFFVT: “inactive”.
With SFGILVYIRTAMPCTNIANY the entry was “inactive”; with SFGLWNLRTYTAVIASSWEL, “inactive”; with SFGYLSAPRFIVGKVSHLGC, “inactive”.
With SFHASGQSSLYKKGDLSTCV the entry was “inactive”; with SFICGINNELVK, “inactive”.
For SFIKRVRDSMSRM, the amyloid nucleation score entry is “inactive”.
With SFKSTSYIITFNWKIVAVWK the entry was “inactive”.
Turning to SFLARVFT, the amyloid nucleation score entry is “inactive”.
Regarding SFLPSNSFFKYQCVMWC, the amyloid nucleation score entry is “inactive”.
As for SFLSYCC, the amyloid nucleation score result was “inactive”.
As to SFLYYRFVLVGIFLRVAGRF, the amyloid nucleation score result was “inactive”.
For SFNMDYHMWIEQGSRWVFTT, the amyloid nucleation score entry is “inactive”.
SFNNININIVVFNVAPFSVH showed an amyloid nucleation score of 2.51 ± 0.082.
Take SFNSVDTRLWTVPRWERMVN: the amyloid nucleation score result was “inactive”.
As for SFPASFSYRNGFVWLNFWVV, the amyloid nucleation score entry is “inactive”.
Consider SFPFDLFGNIVW, for which the amyloid nucleation score result was “inactive”.
SFRGTSARYFMLVGVLGIFV yielded an amyloid nucleation score of -0.2 ± 1.2.
Consider SFRSAVRCTS, for which the amyloid nucleation score entry was “inactive”.
As for SFRSPMDIVLLFVMCSVLAR, the amyloid nucleation score entry was “inactive”.
Next, SFTNFFNGSVGICFRCTLMC: 2.28 ± 0.052.
With SFVQEMGDPPYHKQSQQLRS, the amyloid nucleation score result was “inactive”.
Next, SFYMPTQKLMLFIVVKVKAT: “inactive”; SGDNMPAWVDHMSCHKRWSG: -0.474 ± 1.1.
Turning to SGEYSQRKGSCKGHNGSSRS, the amyloid nucleation score result was “inactive”.
With SGGLRLLGKSLLWTAVCTNT the entry was “inactive”.
Next, SGGLSSLILSCFHIFIIKTY: “inactive”.
As for SGGYDQSQALNRLVGWRVYC, the amyloid nucleation score was -0.301 ± 1.
For the substance SGIQVRGQTSIVLLNF, the amyloid nucleation score stood at 2.41 ± 0.052.
Next, SGNHLSWYGTIE: 1.26 ± 0.086; SGPSGSRCGDITLDTPPVLL: “inactive”; SGRKR: “inactive”.
With SGSGFQLLDGLTTRFSVVTF, the amyloid nucleation score result was “inactive”.
For SGSNILMEWNCYRARLCRGS, the amyloid nucleation score result was “inactive”.
Consider SGSWHKH, for which the amyloid nucleation score entry was “inactive”.
With SGTNNIVLLGHFVDFLEGVL the entry was “inactive”; with SGVCYFHARTRKSSSLRELV, 1.2 ± 0.12.
Substance SGVLLFGVSRMHQR yielded an amyloid nucleation score of 0.203 ± 0.28.
Consider SGVWFVGRVCELHSWFINLS, for which the amyloid nucleation score result was “inactive”.
Next, SGWTPYLCSSSYELFREQRK: -0.084 ± 0.27; SHAEVCQLSTSGPL: “inactive”.
Consider SHCYTRVLCTLVVFT, for which the amyloid nucleation score entry was “inactive”.
With SHFAEQGLSCSLSYSFSTIL, the amyloid nucleation score entry was “inactive”.
In the case of SHLFREIDITWSCSLVISCN, the amyloid nucleation score result was “inactive”.
Next, SHQFYMSARTNW: 0.701 ± 0.24.
Take SHVHLDSSRKRHIDLTNALR: the amyloid nucleation score entry was “inactive”.
SHYRDK: the amyloid nucleation score entry was “inactive”.
With SIDDVDFSGTAKMSSSQRCT the entry was “inactive”; with SIFFIKTYESFDSSLFKSSS, “inactive”; with SIFFNVVLFWGVWELTQGNR, 0.803 ± 0.27.
On to SIIGASLLNYF, for which the amyloid nucleation score result is “inactive”.
For SIIIIISCFGVQNVWFAEMM, the amyloid nucleation score worked out at 0.405 ± 0.3.
With SILDCLLKMGFNTILHACWN the entry was “inactive”; with SINGRDSQG, “inactive”; with SIPLGFGMLSDDKSI, “inactive”.
Next, SIPNTTFIFSLL: 1.19 ± 0.08; SIPVSCGPLKKDVVREIRVK: “inactive”.
With SIQRICMYLKGESCTRVYHS, the amyloid nucleation score result is “inactive”.
SIRLGNNSWPVATSVKWHSV: the amyloid nucleation score entry is “inactive”.
Turning to SIRVSVMFNIRKKVFDLQRF, the amyloid nucleation score result is “inactive”.
Next, SISRLVISF: “inactive”.
With SITFGFESFDVVLGNM the entry was “inactive”.
With SIVSRLLDSIPMMIMSFYFG, the amyloid nucleation score entry is “inactive”.
Next, SIYCTLRVVGT: “inactive”; SIYDSVFKMFCVWIVTSVLF: “inactive”.
In the case of SKCGLLNSSGTYWNIG, the amyloid nucleation score worked out at 0.934 ± 0.15.
With SKESCRCLSWCGPEPRSCIA the entry was “inactive”.
For the substance SKFSSC, the amyloid nucleation score entry was “inactive”.
As for SKGSWHVFNKGSEWVKYFGM, the amyloid nucleation score entry was “inactive”.
SKGTLKHLN gave an amyloid nucleation score of 0.921 ± 0.12.
For the substance SKIFVNIDYVKVFRMICEWR, the amyloid nucleation score result is “inactive”.
With SKIGILWCLMSEECYLFQFR the entry was “inactive”; with SKIVNHFNDHYHFEITCQYQ, 2.88 ± 0.057.
Take SKLRYRCSNSHQVIGTPCLD: the amyloid nucleation score entry was “inactive”.
On to SKSARVLSFYYPYFFISINL, for which the amyloid nucleation score entry was “inactive”.
Take SKTHRSVFMMAVIELKPTNS: the amyloid nucleation score entry is “inactive”.
As for SKVPYPNLVTCVVLCVGFYV, the amyloid nucleation score result is “inactive”.
With SLASRHIGHLLISFLLGYGA, the amyloid nucleation score result was “inactive”.
Regarding SLCNGCMIK, the amyloid nucleation score entry is “inactive”.
In the case of SLDKLAFRD, the amyloid nucleation score result was “inactive”.
For the substance SLEHHQIIYVLARPACL, the amyloid nucleation score result was “inactive”.
SLFLLFLWYGINDTYLVYFV: the amyloid nucleation score result is “inactive”.
With SLFRNS, the amyloid nucleation score result is “inactive”.
For SLGNYHTLGMVFRLA, the amyloid nucleation score is -0.093 ± 0.48.
With SLGRFDLMCHTKYLSTTVVF the entry was “inactive”.
SLGYGDI: the amyloid nucleation score result is “inactive”.
With SLHWVYYIINYTVALTGVLL, the amyloid nucleation score entry is “inactive”.
Consider SLHYEHLAGMTCRLVLEYLI, for which the amyloid nucleation score result was “inactive”.
Next, SLIQY: “inactive”.
In the case of SLIYTRFGSTSWCSKNF, the amyloid nucleation score was determined as 1.53 ± 0.14.
Turning to SLKMK, the amyloid nucleation score result is “inactive”.
Regarding SLLALNRSPVLMRYISEHCN, the amyloid nucleation score result is “inactive”.
Turning to SLLDGTYYNTI, the amyloid nucleation score entry was “inactive”.
With SLLNSNHHGRVMQPRRINSD the entry was “inactive”.
